The text below walks through data of US20030211992A1 (published 2003).

As a reminder, the IC50 is the concentration at which inhibition is half-maximal. The koff is the rate constant with which the complex falls apart. A lower koff goes with a long-lived complex.

Test [1] addresses T1, human IGFBP-1 (human, UniProt P08833 26-259).
T1 construct: biotinylated in the ELISA formats; amine-coupled to the chip in peptide kinetics
T1 sequence (looked up): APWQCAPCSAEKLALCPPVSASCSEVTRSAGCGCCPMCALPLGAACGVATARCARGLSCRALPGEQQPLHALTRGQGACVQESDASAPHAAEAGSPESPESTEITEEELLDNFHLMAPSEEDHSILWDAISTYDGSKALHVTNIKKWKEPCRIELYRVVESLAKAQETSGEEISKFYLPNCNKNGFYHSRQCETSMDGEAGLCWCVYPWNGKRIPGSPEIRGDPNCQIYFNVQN
The test is described as follows: competitive phage ELISA; the reference itself. On the technique in general: An ELISA detects its analyte on a solid surface through an enzyme-linked reagent.

Test [2] concerns the target T2, recombinant human IGFBP-3 (human, UniProt P17936 28-291).
T2 construct: biotinylated and held on a streptavidin chip in the ALS experiment
The test is described as follows: competitive phage ELISA; the reference itself.

The target in test [3] is T1, human IGFBP-1. The test is described as follows: competitive phage ELISA.
Test [4] addresses T2, recombinant human IGFBP-3. The test is described as follows: competitive phage ELISA.
The target in test [5] is T1, human IGFBP-1. The test is described as follows: competitive phage ELISA. This is another data set of the same source.
The target in test [6] is T2, recombinant human IGFBP-3. The test is described as follows: competitive phage ELISA. This is another data set of the same source.
In test [7] the target is T1, human IGFBP-1. The test is described as follows: stated with the explant experiment.
The target of test [8] is T2, recombinant human IGFBP-3. The test is described as follows: phage ELISA on IGFBP-3 plate, competitor IGF-1. As to the method:
The plates were then washed ten times, as above, and a solution of rabbit anti-phage antibody mixed with a goat-anti-rabbit conjugate of horseradish peroxidase was added. After an incubation of 1 hour at room temperature, the plates were developed with a chromogenic substrate, o-phenylenediamine (Sigma). The reaction was stopped with addition of ½ volume of 2.5 M H₂SO₄. Optical density at 490 nm was measured on a spectrophotometric plate reader.
In each case, the phagemid clone was grown from a single colony overnight at 37° C. in a culture volume of 5 ml. The phage particles were precipitated and resuspended in 0.5 ml of PBS buffer.

The target in test [9] is T1, human IGFBP-1. The test is described as follows: BIAcore inhibition of IGFBP-1 binding to IGF-1. For orientation: SPR reads the build-up and loss of mass on a sensor chip optically.
Test [10] addresses IGFBP-3/F49A IGF-1 binary complex (human) (UniProt P17936). The test is described as follows: BIAcore, ALS dissociation from the IGFBP-3/IGF-1 complex.
For test [11], the target named is IGFBP-3/E3A/F49A IGF-1 binary complex (human) (UniProt P17936). The description is as above.

Read-outs that look alike come from different tables or passages of the source. Positions of bridges follow the written chain, without caps; N, C: chain ends. No end group written: not given here. Bounds are passed on as bounds.

T2 sequence (P17936 28-291 limits assumed): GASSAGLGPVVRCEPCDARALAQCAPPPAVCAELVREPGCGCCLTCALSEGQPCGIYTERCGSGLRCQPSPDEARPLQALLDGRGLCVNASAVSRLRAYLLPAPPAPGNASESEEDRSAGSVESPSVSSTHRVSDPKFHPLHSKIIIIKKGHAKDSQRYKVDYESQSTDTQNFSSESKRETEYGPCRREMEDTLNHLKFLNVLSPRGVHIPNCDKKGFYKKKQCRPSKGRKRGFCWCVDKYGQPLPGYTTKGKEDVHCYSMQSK
Sequence of IGFBP-3/F49A IGF-1 binary complex (human) (P17936 28-291, chain 1 of 2): as the sequence (P17936 28-291 limits assumed) above
Sequence of IGFBP-3/F49A IGF-1 binary complex (human) (chain, as listed by the source F49A F49A, chain 2 of 2): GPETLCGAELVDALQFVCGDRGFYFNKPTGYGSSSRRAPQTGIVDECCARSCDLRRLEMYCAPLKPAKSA
Sequence of IGFBP-3/E3A/F49A IGF-1 binary complex (human) (P17936 28-291, chain 1 of 2): as the sequence (P17936 28-291 limits assumed) above
Sequence of IGFBP-3/E3A/F49A IGF-1 binary complex (human) (chain, as listed by the source F49A F49A, chain 2 of 2): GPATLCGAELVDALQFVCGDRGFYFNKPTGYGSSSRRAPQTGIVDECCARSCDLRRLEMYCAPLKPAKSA

Regarding “IGF-1 G1S-A70V on phage (from UniProt P69168 267-424) (ligand)”, the relative IC50 (mut/G1S-A70V) (with human IGFBP-1 [1]; in test [2]) was 1 each time. Moreover, the IC50 stood at 8.5 nM with human IGFBP-1 [3], 0.5 nM in test [4], 8.2 nM with human IGFBP-1 [5] and 0.75 nM in test [6].

As for “T29A IGF-1 (G1S-A70V background) on phage (from UniProt P69168 267-424) (ligand)”, in the test with human IGFBP-1 [5], the IC50 was determined as 7.3 nM and the relative IC50 (mut/G1S-A70V) was determined as 0.9. Also, in test [6], the IC50 is 1.23 nM and the relative IC50 (mut/G1S-A70V) was 1.6.

For “T41A IGF-1 (G1S-A70V background) on phage (from UniProt P69168 267-424) (ligand)”, in the test with human IGFBP-1 [5], the IC50 worked out at 13.7 nM and the relative IC50 (mut/G1S-A70V) stood at 1.7. In test [6], the IC50 was determined as 0.43 nM and the relative IC50 (mut/G1S-A70V) came out at 0.6.

In the test with human IGFBP-1 [5], “V44A IGF-1 (G1S-A70V background) on phage (from UniProt P69168 267-424) (ligand)” came in with an IC50 of 18.8 nM and a relative IC50 (mut/G1S-A70V) of 2.3. In addition, in [6], the IC50 turned out to be 1.03 nM and the relative IC50 (mut/G1S-A70V) came out at 1.4.

With “V70A IGF-1 (single mutant of G1S-A70V) on phage (from UniProt P69168 267-424) (ligand)”, the IC50 with human IGFBP-1 [5] is 19.1 nM; in test [6], 0.68 nM. For the same molecule, the relative IC50 (mut/G1S-A70V) with human IGFBP-1 [5] stood at 2.3; in test [6], 0.9.

“Y31A IGF-1 (G1S-A70V background) on phage (from UniProt P69168 267-424) (ligand)”: in the test with human IGFBP-1 [5], the IC50 came out at 6.8 nM and the relative IC50 (mut/G1S-A70V) came out at 0.8. In test [6], the IC50 worked out at 0.73 nM and the relative IC50 (mut/G1S-A70V) came out at 1.

Turning to “Y60A IGF-1 (G1S-A70V background) on phage (from UniProt P69168 267-424) (ligand)”, in the test with human IGFBP-1 [5], the IC50 stood at 6.6 nM and the relative IC50 (mut/G1S-A70V) was 0.8. In addition, in [6], the IC50 stood at 0.52 nM and the relative IC50 (mut/G1S-A70V) is 0.7.

B1: BP1-16 (peptide)
peptide: CRAGPLQWLCEKYF-NH2
modifications: disulfide 1-10 (inferred)
Turning to B1, the binding result in the test with human IGFBP-1 [7] is given as “binds”.

B2: peptide-phage clone 4C3.2 (g8 display) (peptide)
chain: ELDGWVCIKVGEQNLCYLAEGGGSGGGAEGDDPAKAAFNSLQASATEYIGYAWAMVVVIVGATIGIKLFKKFTSKAS
notes: polyvalent on M13 phage
Regarding B2, the “% inhibition of phage binding by 100 nM IGF-1” value (shortened to “% inhibition of phage binding”) in [8] was greater than 40%.

B3: (i+8)A (peptide)
peptide: Ac-LEWLAEKYFE
modifications: linker 2-10 via 1,5‑diaminopentane
The molecule B3 yielded a fold potency reduction against BP1-01 with human IGFBP-1 [9] greater than 200.

B4: peptide-phage clone 4D3.9 (g8 display) (peptide)
chain: ETVANCDCYMDLCLCYGSDRGGGSGGGAEGDDPAKAAFNSLQASATEYIGYAWAMVVVIVGATIGIKLFKKFTSKAS
notes: polyvalent on M13 phage
As to B4, the “% inhibition of phage binding” value in test [8] is greater than 40%.

B5: peptide-phage clone 4D3.11 (g8 display) (peptide)
chain: VAWEVCWDRHDQGYICTTDSGGGSGGGAEGDDPAKAAFNSLQASATEYIGYAWAMVVVIVGATIGIKLFKKFTSKAS
notes: polyvalent on M13 phage
With B5, the “% inhibition of phage binding” value in [8] was determined as 5%.

B6: peptide-phage clone 4D3.8 (g8 display) (peptide)
chain: SEEVCWPVAEWYLCNILGPGGGSGGGAEGDDPAKAAFNSLQASATEYIGYAWAMVVVIVGATIGIKLFKKFTSKAS
notes: polyvalent on M13 phage
For B6, the “% inhibition of phage binding” value in [8] was greater than 40%.

B7: human acid-labile subunit (protein, UniProt P35858 28-605, looked up)
chain: ADPGTPGEAEGPACPAACVCSYDDDADELSVFCSSRNLTRLPDGVPGGTQALWLDGNNLSSVPPAAFQNLSSLGFLNLQGGQLGSLEPQALLGLENLCHLHLERNQLRSLALGTFAHTPALASLGLSNNRLSRLEDGLFEGLGSLWDLNLGWNSLAVLPDAAFRGLGSLRELVLAGNRLAYLQPALFSGLAELRELDLSRNALRAIKANVFVQLPRLQKLYLDRNLIAAVAPGAFLGLKALRWLDLSHNRVAGLLEDTFPGLLGLRVLRLSHNAIASLRPRTFKDLHFLEELQLGHNRIRQLAERSFEGLGQLEVLTLDHNQLQEVKAGAFLGLTNVAVMNLSGNCLRNLPEQVFRGLGKLHSLHLEGSCLGRIRPHTFTGLSGLRRLFLKDNGLVGIEEQSLWGLAELLELDLTSNQLTHLPHRLFQGLGKLEYLLLSRNRLAELPADALGPLQRAFWLDVSHNRLEALPNSLLAPLGRLRYLSLRNNSLRTFTPQPPGLERLWLEGNPWDCGCPLKALRDFALQNPSAVPRFVQAICEGDDCQPPAYTYNNITCASPPEVVGLDLRDLSEAHFAPC
For B7, the koff in test [10] was found to be 0.00042 s⁻¹; in [11] it was 0.0004 s⁻¹.

B8: peptide-phage clone 4D3.12 (g8 display) (peptide)
chain: AEWAECWIAGDQLLCVGKDNGGGSGGGAEGDDPAKAAFNSLQASATEYIGYAWAMVVVIVGATIGIKLFKKFTSKAS
notes: polyvalent on M13 phage
As to B8, the “% inhibition of phage binding” value in test [8] is greater than 40%.
